B1: IQ calmodulin-binding motif-containing protein 1 (Homo sapiens), Q15051 (parent)
chain: MKPTGTDPRILSIAAEVAKSPEQNVPVILLKLKEIINITPLGSSELKKIKQDIYCYDLIQYCLLVLSQDYSRIQGGWTTISQLTQILSHCCVGLEPGEDAEEFYNELLPSAAENFLVLGRQLQTCFINAAKAEEKDELLHFFQIVTDSLFWLLGGHVELIQNVLQSDHFLHLLQADNVQIGSAVMMMLQNILQINSGDLLRIGRKALYSILDEVIFKLFSTPSPVIRSTATKLLLLMAESHQEILILLRQSTCYKGLRRLLSKQETGTEFSQELRQLVGLLSPMVYQEVEEQKLHQAACLIQAYWKGFQTRKRLKKLPSAVIALQRSFRSKRSKMLLEINRQKEEEDLKLQLQLQRQRAMRLSRELQLSMLEIVHPGQVEKHYREMEEKSALIIQKHWRGYRERKNFHQQRQSLIEYKAAVTLQRAALKFLAKCRKKKKLFAPWRGLQELTDARRVELKKRVDDYVRRHLGSPMSDVVSRELHAQAQERLQHYFMGRALEERAQQHREALIAQISTNVEQLMKAPSLKEAEGKEPELFLSRSRPVAAKAKQAHLTTLKHIQAPWWKKLGEESGDEIDVPKDELSIELENLFIGGTKPP

The variants in this experiment derive from B1. Conditions: with ce290_human CEP290, O15078.
Chain of ce290_human CEP290, O15078 (O15078 whole entry): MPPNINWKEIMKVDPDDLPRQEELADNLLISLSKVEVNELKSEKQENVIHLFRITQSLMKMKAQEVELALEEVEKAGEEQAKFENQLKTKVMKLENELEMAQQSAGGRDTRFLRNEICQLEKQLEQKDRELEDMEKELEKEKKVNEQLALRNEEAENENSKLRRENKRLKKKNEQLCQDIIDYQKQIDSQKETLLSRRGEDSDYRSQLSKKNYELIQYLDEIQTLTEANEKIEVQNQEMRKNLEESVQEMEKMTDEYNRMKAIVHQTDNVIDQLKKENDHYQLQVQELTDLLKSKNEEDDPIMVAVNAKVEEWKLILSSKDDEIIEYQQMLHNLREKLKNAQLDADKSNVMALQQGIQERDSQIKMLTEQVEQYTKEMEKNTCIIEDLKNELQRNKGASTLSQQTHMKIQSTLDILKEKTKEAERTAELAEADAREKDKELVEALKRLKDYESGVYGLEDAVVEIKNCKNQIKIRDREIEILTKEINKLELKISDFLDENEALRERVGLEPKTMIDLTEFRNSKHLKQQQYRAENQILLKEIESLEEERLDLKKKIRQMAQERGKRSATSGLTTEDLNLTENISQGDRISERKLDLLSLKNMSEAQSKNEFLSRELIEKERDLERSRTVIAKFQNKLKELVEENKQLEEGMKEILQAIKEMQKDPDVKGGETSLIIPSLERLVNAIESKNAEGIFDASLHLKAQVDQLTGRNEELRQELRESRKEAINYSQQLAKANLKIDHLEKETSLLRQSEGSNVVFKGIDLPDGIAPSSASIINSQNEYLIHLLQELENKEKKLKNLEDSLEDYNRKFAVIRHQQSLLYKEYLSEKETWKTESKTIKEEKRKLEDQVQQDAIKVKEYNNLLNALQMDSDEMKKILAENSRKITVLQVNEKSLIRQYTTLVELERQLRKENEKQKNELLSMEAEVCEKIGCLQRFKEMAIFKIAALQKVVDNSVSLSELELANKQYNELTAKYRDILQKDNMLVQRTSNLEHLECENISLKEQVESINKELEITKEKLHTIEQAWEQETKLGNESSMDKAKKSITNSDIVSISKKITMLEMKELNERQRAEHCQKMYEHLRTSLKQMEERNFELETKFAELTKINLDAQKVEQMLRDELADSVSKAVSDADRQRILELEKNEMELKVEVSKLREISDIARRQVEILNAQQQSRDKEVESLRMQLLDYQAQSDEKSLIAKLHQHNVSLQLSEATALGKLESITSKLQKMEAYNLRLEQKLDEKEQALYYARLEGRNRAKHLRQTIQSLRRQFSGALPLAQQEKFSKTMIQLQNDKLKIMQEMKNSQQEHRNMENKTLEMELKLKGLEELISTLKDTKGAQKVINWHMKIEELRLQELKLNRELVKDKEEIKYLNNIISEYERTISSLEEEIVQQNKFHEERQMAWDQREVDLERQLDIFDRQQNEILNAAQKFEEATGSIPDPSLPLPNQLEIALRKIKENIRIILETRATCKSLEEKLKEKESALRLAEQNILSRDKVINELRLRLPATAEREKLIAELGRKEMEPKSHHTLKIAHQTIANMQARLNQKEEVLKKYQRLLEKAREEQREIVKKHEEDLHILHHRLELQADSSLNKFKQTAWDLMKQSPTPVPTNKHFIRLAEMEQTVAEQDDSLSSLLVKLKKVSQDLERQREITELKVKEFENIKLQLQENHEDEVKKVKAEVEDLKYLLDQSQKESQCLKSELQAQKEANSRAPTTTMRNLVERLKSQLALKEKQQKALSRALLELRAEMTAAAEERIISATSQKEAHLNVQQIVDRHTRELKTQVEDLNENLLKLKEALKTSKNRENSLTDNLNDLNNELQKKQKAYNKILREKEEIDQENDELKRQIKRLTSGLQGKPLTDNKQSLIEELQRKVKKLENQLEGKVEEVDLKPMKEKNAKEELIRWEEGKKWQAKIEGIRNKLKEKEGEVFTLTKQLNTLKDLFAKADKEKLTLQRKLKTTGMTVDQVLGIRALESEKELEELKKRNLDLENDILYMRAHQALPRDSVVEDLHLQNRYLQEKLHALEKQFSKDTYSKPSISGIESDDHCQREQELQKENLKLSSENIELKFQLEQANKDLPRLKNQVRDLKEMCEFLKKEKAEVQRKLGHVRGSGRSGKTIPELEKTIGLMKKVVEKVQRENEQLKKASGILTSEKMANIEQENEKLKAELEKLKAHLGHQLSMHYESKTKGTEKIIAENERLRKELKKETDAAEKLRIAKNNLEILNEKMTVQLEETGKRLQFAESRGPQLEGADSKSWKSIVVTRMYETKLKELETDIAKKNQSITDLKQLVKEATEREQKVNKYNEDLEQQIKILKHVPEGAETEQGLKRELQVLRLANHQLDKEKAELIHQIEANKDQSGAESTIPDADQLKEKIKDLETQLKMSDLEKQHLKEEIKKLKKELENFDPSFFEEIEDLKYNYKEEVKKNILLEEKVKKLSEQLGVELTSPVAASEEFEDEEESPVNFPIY
Turning to A549K, the “effect of a mutation on the interaction” value was “disrupting interaction”.

These data come from IntAct's records for PubMed 23446637.
